In the DeepSol protein solubility set:

Experiment: soluble on expression in E. coli; label from the status in PepcDB or PDB records

| Sequence | soluble on expression in E. coli |
| --- | --- |
| GLEYRFSKSKQALELTSLRLKEKSEQLEHSQRVAIVGEIGSSLAHELNQPLAAIRNYSEGGLLRLAKKRPHEDIVPVLEKIQGQVERADAIIQRLRTLIRKRSVDKTPCDIQALIADTIELLHFRMQKQNVAIVTSVEGEIRPLLADSVGVQQVLVNVINNAIDACALFQEKYHSSGYQGKIALHCDYQANQLSIRILDNGTGLQQENPTQAFVSSKAEGLGLGLAICRDVMEMHGGEFLIASTTPHGCLVELVFPYQN | not soluble |
| GLGGFTRTRNKGKSNVIDMIQKYIESKGMPIENWDITVGYCTNLEEAEKYRDDVEAQLGVKLLERREDFKTRISIISGCHTGPYALGIACIPKYTTIRL | not soluble |
| GLIDAHGHVIGYGHSLLRVDLVNATSELDAVNRTISYAKDNPSMSWILGRGWNQVQWSNNSYPNAKSLDEAFPNKPVWLRRVDGHAGWANSKAMALAGITSASKAPVGGDIIKDKNGLPTGIFIDNAMTLITASITPPSPMEDKIALKRAMHSLASLGLTSVHDAGIEQKDIALYKTLASEGNMTIRINGMLYLPSTNWQQQLEQGPYRTEDEMFAVNSVKIQADGALGSRGASLINDYSDHSGHKGLLLHDKKSLQHYIDFAMNAGFQVNTHAIGDNANKLILDLYQQAIQKSQTKALRHRIEHAQVLRLEDISRFSSLNVIASMQATHATSDKNMAVTRLGGKRILGAYAWRKLLDSNTIIAAGSDFPVESPNPFFGLHASITRQDHKDLPIGGWYADQKMTRTEALRSFTIDAAYAGHQEKLIGSLEAGKKADFILLADDLLTMPESTIWQSQVSQTWVAGKKVFSAIDVPSVE | not soluble |
| GMAEEKKKKLSIIVFSGTIDKLMPVGILTSGAAASGYEVNLFFTFWGLQAITKRSLNSQQPPQIDKNYEQMGPIMMQKMQEMKYPMWHQLVQQAKEIGEVKVFACSTTMEFFGIKREDLAEFVDDVVGVATFLDRAEGGTTLFI | soluble |
| GMDNSEEKKLEALGAFEISRKMLALAQKNEKSNIFLNAGRGNPNWIQTLARLAFVRLVQFGVTESKLTINNGIMAGYINTDGIRERLFAFLDPDKNDEDKFLIDAVNYCHTELGLNRDKVVAEWVNGAVANNYPVPDRCLVNTEKIINYFLQELSYKDANLAEQTDLFPTEGGTAAIVYAFHSLAENHLLKKGDKIAINEPIFTPYLRIPELKDYELVEVDLHSYEKNDWEIEPNEIEKLKDPSIKALIVVNPTNPTSKEFDTNALNAIKQAVEKNPKLMIISDEVYGAFVPNFKSIYSVVPYNTMLVYSYSKLFGCTGWRLGVIALNEKNVFDDNIAHLDKVELRQLHKRYSSVVLDPDKMKFIDRLCADSRSIGLYHTAGLSTPQQIMEALFSMTHLLTSTNGGSDDPYIDIARKLVSERYDQLHDAMQAPKDETDTNTHYYSLIDIYRLAEKIYGKEFRDYLTNNFEQVDFLLKLAEKNGVVLVDGVGFGAKPGELRVSQANLPTEDYALIGKQVLELLKEYYEEFKQNN | soluble |
| GMECRPLCIDDLELVCRHREAMFREAGRDALTLAAMQDPFRDWLLPRLADGSYFGWVMEEGGAPLAGIGLMVIEWPPHPSHPLQDKRGYILNLYVDPSHRERGIGQALMNRAEAEFAERGIAFAVLHATEMGQPLYARMGWSPTTEMSKPIAG | soluble |
| GMEFLMKISHLDHLVLTVADIPTTTKFYEKVLGMKAVSFGSGRIALEFGHQKINLHQLGHEFEPKAQNVRTGSADLCFITDIDLSDAMEYVENQGVVIMEGPVKRTGAQGAITSFYFRDPDGNLIEVSTYSNT | soluble |
| GMENELEDKILAILEQHQVGVLTSVQGDFPHARYMTFLHDGLTLYTPSGKELPKTEEVRRNPHVCVLIGYDSPGSAFLEINGLASLEEDESIKERIWENISKDWFQGEDSPSFVVIKIVPEQIRILNS | soluble |
| GMHSALQLRSRIKSSGELELSLDSIDTPHPGPDEVLIRIEASPLNPSDLGLLFGAADMSTAKASGTAERPIVTARVPEGAMRSMAGRLDASMPVGNEGAGVVVEAGSSPAAQALMGKTVAAIGGAMYSQYRCIPADQCLVLPEGATPADGASSFVNPLTALGMVETMRLEGHSALVHTAAASNLGQMLNQICLKDGIKLVNIVRKQEQADLLKAQGAVHVCNAASPTFMQDLTEALVSTGATIAFDATGGGKLGGQILTCMEAALNKSAREYSRYGSTTHKQVYLYGGLDTSPTEFNRNFGMAWGMGGWLLFPFLQKIGRERANALKQRVVAELKTTFASHYSKEISLAEVLDLDMIAVYNKRATGEKYLINPNKGLAG | soluble |
| GMKIEHVALWTTNLEQMKQFYVTYFGATANDLYENKTKGFNSYFLSFEDGARLEIMSRTDVTGKTTGENLGWAHIAISTGTKEAVDELTEKLRQDGFAIAGEPRMTGDGYYESVVLDPEGNRIEITW | soluble |
| GMLKSKIKEEYVQMDQVDWKPFPAAFSTGGIRWKLLHVSPEMGSWTAIFDCPAGSSFAAHVHVGPGEYFLTKGKMDVRGGKAAGGDTAIAPGYGYESANARHDKTEFPVASEFYMSFLGPLTFVKPDGSPIAVIGWEDAQGAWAA | soluble |
| GMMQKPITEIIIVGGGTAGWITAGLLAAEHNVDKGVLAHSPKLNITLIESPDVATIGVGEGTWPSMRSTLSKIGIDENDFIRQCDASFKQGSRFINWCKDPQSNVADSYLHPFSLPHGHQELDLCPYWLPHAEQVSFAEAVCSQQVLTQLGLAPKSIVTAQYHFQNNYGYHLNAAKFSQLLTEHCTQKLGVTHIRDHVSQIINNQHGDIEKLITKQNGEISGQLFIDCTGAKSLLLGEHLQVPFLSQKSVLFNDRALAIQVPYSDANSPIASCTHSTAQPNGWIWDIGLPTRKGVGYVYSSSHTNDIDAQKTLFNYLGVDGAAADKLEPRQLAINPGYRAKCWQNNCIAIGMAAGFIEPLEASALALIEWTASTLAQQLPPNRMVMDTISARVNERYQQHWQQIIDFLKLHYVISQRQEDRYWRDHRESNSIPDSLQAMLELWRYQTPSQQDISYKEALFPAASFQYVLYGMSFNTQLPTHVKPSMQQLAQRLFNDNQQRTQALSKNLPTNRELLDKVAQYGFPKL | soluble |
| GMNGFSQLEGLRGHPSVVRVIGHRGARGVMPENTLEGFAFTLAAGVRALEFDVVMTADGVPVVTHNHHLANAMTRDGQGHWLTGAERQVAEMTYAEIRALDVGGLDGRTVYGRRFPDQAFLTGIHVPRLGELLDLCAGYGDQAPYLLLELKSDPALMHDHAARAEMVAAVLADVRRYRMEPRTVMHSFDWALLGECRRQAPDLPTSYLSQLPENADDPGEDSAKPVGPDYDRMTESLPQAVASAGGQLWCPYFLDVTPELVAEAHDLGLIVLTWTVNEPEDIRRMATTGVDGIVTDYPGRTQRILIDMGLSWT | soluble |
| GMNIEKTRFCINRKIAPGLSIEAFFRLVKRLEFNKVELRNDMPSGSVTDDLNYNQVRNLAEKYGLEIVTINAVYPFNQLTEEVVKKTEGLLRDAQGVGARALVLCPLNDGTIVPPEVTVEAIKRLSDLFARYDIQGLVEPLGFRVSSLRSAVWAQQLIREAGSPFKVLLDTFHHHLYEEAEKEFASRIDISAIGLVHLSGVEDTRPTEALADEQRIMLSEKDVMQNYQQVQRLENMGYRGIYAFEPFSSQLASWSEAEIEEQINRSVSLLLQ | soluble |
| GMNRLRTSFQQTTGQISGHGKRNVGVLKTAFAAVADEMASDQYGTGAIIEPFEQKFADVLGMDDAVFFPSGTMAQQVALRIWSDETDNRTVAYHPLCHLEIHEQDGLKELHPIETILVGAADRLMTLDEIKALPDIACLLLELPQREIGGVAPAFSELETISRYCRERGIRLHLDGARLFEMLPYYEKTAAEIAGLFDSIYISFYKGLGGIAGAILAGPAAFCQTARIWKRRYGGDLISLYPYIVSADYYYELRKDRMGQYYEQAKQLAEQFNALPGVHTTPEVPVSNMFHLHFDGQAADISPKLEQVQEETGLGFVGYLVDKDGYCSTEISVGDAYGELDQQTRDAGFARLRQAFS | soluble |
| GMNSPKNSLYEEKSGHYYNAVNPNLLKHIKKEWKEVLDIGCSSGALGAAIKENGTRVSGIEAFPEAAEQAKEKLDHVVLGDIETMDMPYEEEQFDCVIFGDVLEHLFDPWAVIEKVKPYIKQNGVILASIPNVSHISVLAPLLAGNWTYTEYGLLDKTHIRFFTFNEMLRMFLKAGYSISKVDRVYVDHKMYEPLIEELYGICKKYRLGSGFMAETVVFQYIIEAEKSQL | soluble |
| GMQQPTASVVSYVAEYHKATETTMGRYKKVIEITGHDEVAAKLLEGLIDAGTRYFSKVVEMEHRMASARFRLDGEELRELTETLDRSRRLAHESLISSLHVFNRYIVKEYGEELKEAGIEGGIFPKPEANRDRIAIADWAGELLTGIYENRHR | soluble |
